Reference: patent US20250262210A1 (TRUSTEES OF COLUMBIA UNIVERSITY IN THE CITY OF NEW YORK, published 2025)

Assays:
Test in all cases: IP/MS, LZTR1 R810W-FLAG, U87
[1] = molecular target: T1, CTDP1 (human, UniProt Q9Y5B0 1-961, limits assumed)
T1 sequence (looked up): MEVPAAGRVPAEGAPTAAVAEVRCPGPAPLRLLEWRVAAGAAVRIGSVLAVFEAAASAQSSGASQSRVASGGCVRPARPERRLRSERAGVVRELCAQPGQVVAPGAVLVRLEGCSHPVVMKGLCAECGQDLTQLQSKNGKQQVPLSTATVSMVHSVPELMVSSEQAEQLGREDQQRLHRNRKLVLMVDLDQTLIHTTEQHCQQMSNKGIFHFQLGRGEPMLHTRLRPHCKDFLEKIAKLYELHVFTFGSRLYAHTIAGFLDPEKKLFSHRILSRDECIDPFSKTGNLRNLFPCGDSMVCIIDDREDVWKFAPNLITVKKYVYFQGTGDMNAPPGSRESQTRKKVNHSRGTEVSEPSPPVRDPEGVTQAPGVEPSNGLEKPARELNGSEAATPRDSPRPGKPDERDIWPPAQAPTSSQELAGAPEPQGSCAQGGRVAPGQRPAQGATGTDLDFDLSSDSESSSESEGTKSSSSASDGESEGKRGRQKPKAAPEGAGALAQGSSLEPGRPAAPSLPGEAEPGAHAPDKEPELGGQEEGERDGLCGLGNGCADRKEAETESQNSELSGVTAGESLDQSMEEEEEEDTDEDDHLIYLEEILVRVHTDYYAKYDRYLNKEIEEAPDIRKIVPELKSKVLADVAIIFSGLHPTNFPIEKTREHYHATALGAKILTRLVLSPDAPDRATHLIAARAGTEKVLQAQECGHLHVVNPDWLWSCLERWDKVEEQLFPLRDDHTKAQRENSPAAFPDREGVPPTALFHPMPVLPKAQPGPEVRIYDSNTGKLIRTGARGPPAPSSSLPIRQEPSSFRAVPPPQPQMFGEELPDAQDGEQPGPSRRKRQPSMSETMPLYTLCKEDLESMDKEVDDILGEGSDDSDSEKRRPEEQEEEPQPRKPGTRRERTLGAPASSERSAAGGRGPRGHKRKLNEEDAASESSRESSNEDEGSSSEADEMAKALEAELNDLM
Outline: (§1)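 Read-out: spectral counts from LC-MS/MS (Orbitrap Fusion) after MaxQuant identification. Variable modifications were Met oxidation, protein N-terminal acetylation and N/Q deamidation.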

[2] = molecular target: ARHGEF28 (human, UniProt Q8N1W1 1-1705, limits assumed)
ARHGEF28, sequence (Q8N1W1 whole entry): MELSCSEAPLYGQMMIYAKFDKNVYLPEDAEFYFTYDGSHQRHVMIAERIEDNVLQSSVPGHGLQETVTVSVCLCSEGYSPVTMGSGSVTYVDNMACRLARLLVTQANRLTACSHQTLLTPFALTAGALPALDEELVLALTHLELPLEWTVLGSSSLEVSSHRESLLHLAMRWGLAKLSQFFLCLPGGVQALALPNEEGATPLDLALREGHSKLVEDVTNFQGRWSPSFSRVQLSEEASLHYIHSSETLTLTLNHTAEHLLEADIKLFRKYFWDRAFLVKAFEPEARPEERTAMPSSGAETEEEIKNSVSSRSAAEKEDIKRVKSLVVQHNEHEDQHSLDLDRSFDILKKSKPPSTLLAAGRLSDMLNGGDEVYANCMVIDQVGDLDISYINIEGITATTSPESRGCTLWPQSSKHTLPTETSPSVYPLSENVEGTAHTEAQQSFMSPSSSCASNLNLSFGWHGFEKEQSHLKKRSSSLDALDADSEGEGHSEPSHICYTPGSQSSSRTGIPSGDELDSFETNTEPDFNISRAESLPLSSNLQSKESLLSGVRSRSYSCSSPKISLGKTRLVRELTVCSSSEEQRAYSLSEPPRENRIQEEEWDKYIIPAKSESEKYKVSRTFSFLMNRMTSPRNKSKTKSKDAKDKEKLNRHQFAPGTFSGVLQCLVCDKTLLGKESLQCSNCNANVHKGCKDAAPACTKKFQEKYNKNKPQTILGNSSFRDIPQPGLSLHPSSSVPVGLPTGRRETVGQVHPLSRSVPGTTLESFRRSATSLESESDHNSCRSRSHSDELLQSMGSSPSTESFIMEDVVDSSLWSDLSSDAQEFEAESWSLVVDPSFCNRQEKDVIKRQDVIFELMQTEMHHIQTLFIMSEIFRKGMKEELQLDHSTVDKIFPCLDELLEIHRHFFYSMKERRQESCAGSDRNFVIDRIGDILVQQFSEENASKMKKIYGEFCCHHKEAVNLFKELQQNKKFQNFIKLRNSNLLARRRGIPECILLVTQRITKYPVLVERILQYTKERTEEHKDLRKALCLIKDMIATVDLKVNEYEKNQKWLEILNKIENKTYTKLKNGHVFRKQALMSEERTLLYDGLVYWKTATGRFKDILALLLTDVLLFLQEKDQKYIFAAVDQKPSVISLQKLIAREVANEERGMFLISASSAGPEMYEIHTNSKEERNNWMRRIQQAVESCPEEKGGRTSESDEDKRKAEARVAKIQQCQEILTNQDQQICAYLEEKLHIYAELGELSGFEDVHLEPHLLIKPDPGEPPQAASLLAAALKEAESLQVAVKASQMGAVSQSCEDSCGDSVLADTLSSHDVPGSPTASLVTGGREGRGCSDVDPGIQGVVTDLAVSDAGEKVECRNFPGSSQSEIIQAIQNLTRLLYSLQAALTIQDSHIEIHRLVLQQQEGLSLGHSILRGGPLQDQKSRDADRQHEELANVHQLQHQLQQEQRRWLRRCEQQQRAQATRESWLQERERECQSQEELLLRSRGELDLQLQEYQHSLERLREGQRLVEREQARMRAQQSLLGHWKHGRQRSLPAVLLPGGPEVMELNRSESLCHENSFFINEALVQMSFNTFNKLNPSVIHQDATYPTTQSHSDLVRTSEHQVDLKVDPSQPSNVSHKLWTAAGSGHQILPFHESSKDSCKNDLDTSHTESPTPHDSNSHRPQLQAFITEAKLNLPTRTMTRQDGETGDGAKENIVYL
Outline: as §1

[3] = molecular target: RICTOR (human, UniProt Q6R327 1-1708, limits assumed)
RICTOR, sequence (Q6R327 whole entry): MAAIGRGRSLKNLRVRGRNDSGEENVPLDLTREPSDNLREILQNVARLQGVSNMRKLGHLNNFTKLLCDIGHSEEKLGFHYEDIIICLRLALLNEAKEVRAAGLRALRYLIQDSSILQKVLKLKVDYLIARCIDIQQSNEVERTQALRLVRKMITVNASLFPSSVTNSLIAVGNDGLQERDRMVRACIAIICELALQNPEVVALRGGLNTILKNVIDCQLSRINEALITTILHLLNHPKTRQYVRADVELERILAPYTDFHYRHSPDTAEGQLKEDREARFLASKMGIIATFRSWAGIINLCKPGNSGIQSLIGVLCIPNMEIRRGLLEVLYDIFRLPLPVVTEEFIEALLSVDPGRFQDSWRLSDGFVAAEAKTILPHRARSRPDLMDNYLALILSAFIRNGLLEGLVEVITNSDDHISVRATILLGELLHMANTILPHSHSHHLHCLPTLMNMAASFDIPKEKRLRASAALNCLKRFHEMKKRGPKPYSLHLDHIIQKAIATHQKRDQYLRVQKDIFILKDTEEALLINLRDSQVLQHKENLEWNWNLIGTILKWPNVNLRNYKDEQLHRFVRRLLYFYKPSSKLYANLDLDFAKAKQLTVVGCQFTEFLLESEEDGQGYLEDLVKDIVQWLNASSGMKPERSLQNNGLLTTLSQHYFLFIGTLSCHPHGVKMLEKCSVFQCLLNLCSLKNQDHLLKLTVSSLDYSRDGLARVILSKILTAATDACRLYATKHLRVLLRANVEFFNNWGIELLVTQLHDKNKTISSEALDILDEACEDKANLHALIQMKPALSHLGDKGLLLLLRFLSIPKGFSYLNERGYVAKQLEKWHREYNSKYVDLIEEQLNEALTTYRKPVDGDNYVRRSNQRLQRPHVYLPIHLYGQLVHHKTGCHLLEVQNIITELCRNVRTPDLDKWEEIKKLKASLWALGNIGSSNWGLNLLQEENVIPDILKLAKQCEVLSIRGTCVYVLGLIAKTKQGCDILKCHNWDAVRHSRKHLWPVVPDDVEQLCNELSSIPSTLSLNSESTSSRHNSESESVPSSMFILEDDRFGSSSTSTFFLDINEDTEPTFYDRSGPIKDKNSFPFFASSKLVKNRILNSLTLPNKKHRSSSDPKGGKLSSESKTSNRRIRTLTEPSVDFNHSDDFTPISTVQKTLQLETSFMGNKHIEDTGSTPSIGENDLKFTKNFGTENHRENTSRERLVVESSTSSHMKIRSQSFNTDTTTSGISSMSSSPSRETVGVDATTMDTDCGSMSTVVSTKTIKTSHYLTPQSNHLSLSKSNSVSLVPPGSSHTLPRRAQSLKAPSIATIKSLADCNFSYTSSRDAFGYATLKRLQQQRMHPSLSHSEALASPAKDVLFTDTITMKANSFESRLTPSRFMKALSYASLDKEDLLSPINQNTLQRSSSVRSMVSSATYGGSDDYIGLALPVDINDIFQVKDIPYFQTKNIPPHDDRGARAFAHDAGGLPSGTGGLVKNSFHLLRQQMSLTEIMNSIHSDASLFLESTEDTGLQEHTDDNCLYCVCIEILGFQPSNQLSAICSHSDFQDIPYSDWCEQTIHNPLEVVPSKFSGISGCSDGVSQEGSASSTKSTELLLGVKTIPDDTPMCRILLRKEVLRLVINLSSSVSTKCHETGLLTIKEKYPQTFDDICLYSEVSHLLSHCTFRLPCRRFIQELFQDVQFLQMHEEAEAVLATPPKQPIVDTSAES
Outline: as §1

[4] = molecular target: T2, EMC1 (human, UniProt Q8N766 23-993, limits assumed)
T2 sequence (looked up): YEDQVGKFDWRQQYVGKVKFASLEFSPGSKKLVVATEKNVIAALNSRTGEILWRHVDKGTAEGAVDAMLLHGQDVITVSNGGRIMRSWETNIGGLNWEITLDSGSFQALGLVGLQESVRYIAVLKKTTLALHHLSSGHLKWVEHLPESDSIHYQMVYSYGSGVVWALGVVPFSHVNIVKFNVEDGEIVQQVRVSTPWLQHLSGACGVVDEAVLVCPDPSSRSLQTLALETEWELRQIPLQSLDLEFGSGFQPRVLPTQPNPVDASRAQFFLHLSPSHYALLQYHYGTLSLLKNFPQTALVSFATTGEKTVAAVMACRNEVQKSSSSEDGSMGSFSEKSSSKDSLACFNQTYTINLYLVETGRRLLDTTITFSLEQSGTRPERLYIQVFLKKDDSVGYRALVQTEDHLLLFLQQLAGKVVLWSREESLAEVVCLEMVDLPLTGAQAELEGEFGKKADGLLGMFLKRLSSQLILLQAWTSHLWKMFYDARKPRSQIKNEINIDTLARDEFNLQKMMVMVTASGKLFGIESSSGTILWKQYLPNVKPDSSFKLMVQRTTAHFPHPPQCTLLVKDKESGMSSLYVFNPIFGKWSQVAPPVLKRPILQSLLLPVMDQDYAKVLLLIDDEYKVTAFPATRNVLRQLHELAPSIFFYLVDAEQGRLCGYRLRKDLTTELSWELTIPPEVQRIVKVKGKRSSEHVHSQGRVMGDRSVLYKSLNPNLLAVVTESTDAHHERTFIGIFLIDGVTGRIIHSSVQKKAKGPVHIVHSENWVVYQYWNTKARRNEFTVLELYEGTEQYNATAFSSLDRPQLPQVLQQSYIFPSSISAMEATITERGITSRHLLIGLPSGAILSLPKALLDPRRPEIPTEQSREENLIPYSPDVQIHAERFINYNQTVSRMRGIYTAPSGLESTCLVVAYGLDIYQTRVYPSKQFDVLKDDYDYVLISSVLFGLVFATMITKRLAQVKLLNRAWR
Outline: as §1

Measured: binding result

B1: LZTR1 R810W-FLAG (other, human, UniProt Q8N653 1-840, looked up)
chain: MAGPGSTGGQIGAAALAGGARSKVAPSVDFDHSCSDSVEYLTLNFGPFETVHRWRRLPPCDEFVGARRSKHTVVAYKDAIYVFGGDNGKTMLNDLLRFDVKDCSWCRAFTTGTPPAPRYHHSAVVYGSSMFVFGGYTGDIYSNSNLKNKNDLFEYKFATGQWTEWKIEGRLPVARSAHGATVYSDKLWIFAGYDGNARLNDMWTIGLQDRELTCWEEVAQSGEIPPSCCNFPVAVCRDKMFVFSGQSGAKITNNLFQFEFKDKTWTRIPTEHLLRGSPPPPQRRYGHTMVAFDRHLYVFGGAADNTLPNELHCYDVDFQTWEVVQPSSDSEVGGAEVPERACASEEVPTLTYEERVGFKKSRDVFGLDFGTTSAKQPTQPASELPSGRLFHAAAVISDAMYIFGGTVDNNIRSGEMYRFQFSCYPKCTLHEDYGRLWESRQFCDVEFVLGEKEECVQGHVAIVTARSRWLRRKITQARERLAQKLEQEAAPVPREAPGVAAGGARPPLLHVAIREAEARPFEVLMQFLYTDKIKYPRKGHVEDVLLIMDVYKLALSFQLCRLEQLCRQYIEASVDLQNVLVVCESAARLQLSQLKEHCLNFVVKESHFNQVIMMKEFERLSSPLIVEIVRRKQQPPPRTPLDQPVDIGTSLIQDMKAYLEGAGAEFCDITLLLDGHPRPAHKAILAARSSYFEAMFRSFMPEDGQVNISIGEMVPSRQAFESMLRYIYYGEVNMPPEDSLYLFAAPYYYGFYNNRLQAYCKQNLEMNVTVQNVLQILEAADKTQALDMKRHCLHIIVHQFTKVSKLPTLWSLSQQLLLDIIDSLASHISDKQCAELGADI
notes: Stably expressed in U87 cells by lentivirus; also called LZTR1-FLAG-R810W; LZTR1 RW; not shown: FLAG tag
binds: all assays above
